Columns and labels:
[1] = biological target: T1, human CEA protein on the cell surface (human, UniProt P06731 35-685); assay: FACS, MKN45 cells
T1 construct: whole, on cells; also called CEACAM-5; CD66e
T1 sequence (looked up): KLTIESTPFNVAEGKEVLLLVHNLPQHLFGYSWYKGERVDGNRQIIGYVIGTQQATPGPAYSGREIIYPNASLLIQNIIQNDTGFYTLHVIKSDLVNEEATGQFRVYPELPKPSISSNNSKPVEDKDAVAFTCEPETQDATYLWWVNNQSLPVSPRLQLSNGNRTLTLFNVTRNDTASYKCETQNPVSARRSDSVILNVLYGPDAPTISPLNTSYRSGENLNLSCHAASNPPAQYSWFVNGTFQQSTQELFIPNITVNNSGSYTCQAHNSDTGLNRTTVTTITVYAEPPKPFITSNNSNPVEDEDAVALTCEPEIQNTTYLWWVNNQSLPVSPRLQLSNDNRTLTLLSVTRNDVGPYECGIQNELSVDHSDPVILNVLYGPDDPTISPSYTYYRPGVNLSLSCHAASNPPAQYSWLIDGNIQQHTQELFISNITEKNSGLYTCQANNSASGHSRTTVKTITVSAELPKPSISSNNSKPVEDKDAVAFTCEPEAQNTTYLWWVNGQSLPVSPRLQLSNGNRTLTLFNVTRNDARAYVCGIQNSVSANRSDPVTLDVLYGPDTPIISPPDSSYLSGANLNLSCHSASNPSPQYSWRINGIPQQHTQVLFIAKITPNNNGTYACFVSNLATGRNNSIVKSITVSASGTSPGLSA

[2] = biological target: T2, human CEACAM1 expressed on CHO cell surface (human, UniProt P13688 35-526); assay: FACS, CEACAM1-CHO cells
T2 construct: also called CEACAM1-CHO
T2 sequence: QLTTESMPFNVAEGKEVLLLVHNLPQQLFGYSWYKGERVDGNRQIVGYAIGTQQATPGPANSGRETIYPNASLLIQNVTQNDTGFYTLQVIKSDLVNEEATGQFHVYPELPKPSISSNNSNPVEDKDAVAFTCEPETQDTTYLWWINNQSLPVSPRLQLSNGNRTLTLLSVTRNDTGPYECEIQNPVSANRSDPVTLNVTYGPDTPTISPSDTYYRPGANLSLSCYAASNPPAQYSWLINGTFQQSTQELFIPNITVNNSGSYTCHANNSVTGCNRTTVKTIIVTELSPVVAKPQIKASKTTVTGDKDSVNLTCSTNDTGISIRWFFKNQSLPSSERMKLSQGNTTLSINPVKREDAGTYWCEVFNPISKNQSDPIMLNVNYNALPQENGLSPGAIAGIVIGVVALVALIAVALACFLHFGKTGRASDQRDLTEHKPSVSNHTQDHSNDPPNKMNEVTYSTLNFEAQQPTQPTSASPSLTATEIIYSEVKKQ

[3] = biological target: T3, monkey CEA expressed on CHO cell surface (cynomolgus monkey); assay: FACS, cynoCEA-CHO cells
T3 construct: also called cynoCEA-CHO; monkey CEA proteins on the cell surface
T3 chain: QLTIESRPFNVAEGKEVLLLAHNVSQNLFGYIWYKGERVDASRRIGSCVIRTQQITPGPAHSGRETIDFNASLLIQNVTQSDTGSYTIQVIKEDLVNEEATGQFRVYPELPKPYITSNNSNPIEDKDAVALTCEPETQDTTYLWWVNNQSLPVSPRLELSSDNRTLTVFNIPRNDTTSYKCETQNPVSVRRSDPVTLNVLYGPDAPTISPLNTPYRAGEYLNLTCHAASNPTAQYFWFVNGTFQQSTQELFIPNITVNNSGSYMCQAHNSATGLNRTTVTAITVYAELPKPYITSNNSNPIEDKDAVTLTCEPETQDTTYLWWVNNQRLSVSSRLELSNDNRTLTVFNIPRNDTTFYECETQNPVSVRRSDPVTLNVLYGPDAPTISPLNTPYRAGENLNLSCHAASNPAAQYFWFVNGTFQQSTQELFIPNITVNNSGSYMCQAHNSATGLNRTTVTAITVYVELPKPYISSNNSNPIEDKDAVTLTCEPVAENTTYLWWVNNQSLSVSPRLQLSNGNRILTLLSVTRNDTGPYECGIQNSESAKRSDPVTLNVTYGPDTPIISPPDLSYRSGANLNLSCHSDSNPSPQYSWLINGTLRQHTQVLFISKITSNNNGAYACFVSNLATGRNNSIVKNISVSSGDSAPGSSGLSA

[4] = biological target: T1, human CEA protein on the cell surface; assay: FACS, MKN45 cells, -/+ 5 ug/mL sCEA as competitor
Method: The gradient-diluted antibody and the pre-incubated mixed solution of the antibody and sCEA was added into each well. The plate was incubated at 4° C. for 60 min and centrifuged, and the supernatant was removed. The cells were washed twice with pre-cooled PBS containing FBS at final concentration 10%. 50 μL of 1:200 diluted secondary antibody Alexa Fluor@488 goat anti-human IgG (H+L) (Lifetechologies, Cat #A11013) was added. […] The cells were washed twice with 250 μL of pre-cooled PBS with FBS at final concentration 10%. 100 μL of pre-cooled PBS was added to each well to resuspend the cells. The suspension was analyzed by a flow cytometer (FACS) (BD, FACSverse) for fluorescence signal values.

B1: mAb103 (antibody, V domains shown)
VH: QIQLVQSGPELKKPGETVKISCKASGYTFTTYGVIWVKQAPGKGLKWMGWINTYSGVPTYADDFKGRFAFSLETSASTAFLQINNLKNEDTATYFCARKKTLTTVTPWFAYWGQGTLVTVSA
VL: DLVVTQSSSASFSLGASAKLTCTLSSQHSTYTIEWYQQQPLKPPKYVMELKKDGSHSTGDGIPDRFSGSSSGADRYLTISNIQPEDEAIYICGVGNTIKEQFVYVFGGGTKVTVL
notes: Murine hybridoma antibody
In the case of B1, the EC50 [1] is reported as 3.94 nM, the binding result [2] is reported as “no binding” and the EC50 [3] is reported as 0.71 nM. For the same binder, the “maximum ratio of fluorescence signals (absence of sCEA / presence of sCEA)” value [4] was 1.02.
